This is an account of results in the supplement of paper PMC9233669.

Variants at the floor of the assay were thinned out.

One series deals with biotinyl-Ile-oxazolone. The experiment in a line: self-aminoacylation, catalytic enhancement (BIO) (fold over background); higher = more active; k-Seq, kA / k0A0; sequences stand for … in GGGAAUGGAUCCACAUCUACGAAUUC…UUCACUGCAGACUUGACGAAGCUG
In short, it runs like this: (§1)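 Mutagenized RNA pools with a 21-nt variable region (0.43 μM) were reacted with each biotinyl-aminoacyl-oxazolone at 2–1250 μM for 90 minutes at room temperature, in 50 μL HEPES/NaCl/KCl/MgCl2/CaCl2 buffer containing 5% acetonitrile at pH 6.9–7.0. RNA captured on streptavidin was quantified by triplicate qPCR and by Illumina sequencing. The fraction reacted for each sequence was fit to a pseudo-first-order model with bootstrapping, and catalytic enhancement is the median kA divided by the uncatalyzed rate, taken as the low-activity peak of a bimodal Gaussian fit.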

Another series concerns biotinyl-Met-oxazolone. The experiment in a line: self-aminoacylation, catalytic enhancement (BMO) (fold over background); higher = more active; k-Seq, kA / k0A0; sequences stand for … in GGGAAUGGAUCCACAUCUACGAAUUC…UUCACUGCAGACUUGACGAAGCUG
In short, it runs like this: as §1

For a further series, the system named is biotinyl-Phe-oxazolone. As to the kind of experiment: self-aminoacylation, catalytic enhancement (BFO) (fold over background); higher = more active; k-Seq, kA / k0A0; sequences stand for … in GGGAAUGGAUCCACAUCUACGAAUUC…UUCACUGCAGACUUGACGAAGCUG
Summed up:
as §1

In a further series the test system is biotinyl-Trp-oxazolone. As to the kind of experiment: self-aminoacylation, catalytic enhancement (BWO) (fold over background); higher = more active; k-Seq, kA / k0A0; sequences stand for … in GGGAAUGGAUCCACAUCUACGAAUUC…UUCACUGCAGACUUGACGAAGCUG
In short, it runs like this:
as §1

The subject of another series is biotinyl-Val-oxazolone. The experiment in a line: self-aminoacylation, catalytic enhancement (BVO) (fold over background); higher = more active; k-Seq, kA / k0A0; sequences stand for … in GGGAAUGGAUCCACAUCUACGAAUUC…UUCACUGCAGACUUGACGAAGCUG
Summed up:
as §1

A further series deals with biotinyl-Leu-oxazolone. The experiment in a line: self-aminoacylation, catalytic enhancement (BLO) (fold over background); higher = more active; k-Seq, kA / k0A0; sequences stand for … in GGGAAUGGAUCCACAUCUACGAAUUC…UUCACUGCAGACUUGACGAAGCUG
Summed up:
as §1

In the case of “AUUCCCCUAGGGCAUCGGGUG [Fam2.2 aminoacylation ribozyme variant]”, the self-aminoacylation with biotinyl-Ile-oxazolone came to 7.87; with biotinyl-Met-oxazolone, 10.3; with biotinyl-Phe-oxazolone it was 42.8; with biotinyl-Trp-oxazolone, 10.4; in the series on biotinyl-Val-oxazolone, 6.4; with biotinyl-Leu-oxazolone, 12.4.

On to “AUUCACCUAGGGCAUCGGGCG [Fam2.2 aminoacylation ribozyme variant]”, for which the self-aminoacylation with biotinyl-Ile-oxazolone was determined as 3.54; in the series on biotinyl-Met-oxazolone it was 3.47; in the series on biotinyl-Phe-oxazolone, 15.7; in the series with biotinyl-Trp-oxazolone, 2.7; in the series on biotinyl-Val-oxazolone it was 4.35; in the series with biotinyl-Leu-oxazolone, 4.74.

Turning to “GUGCACCUAGGUCAUCGGGUG [Fam2.2 aminoacylation ribozyme variant]”, the self-aminoacylation with biotinyl-Ile-oxazolone is 3.96; in the series on biotinyl-Met-oxazolone, 3.85; in the series with biotinyl-Phe-oxazolone it was 26.8; with biotinyl-Trp-oxazolone, 6.04; in the series on biotinyl-Val-oxazolone, 4.64; in the series with biotinyl-Leu-oxazolone, 3.9.

With “AUUACCCUGGUCACUGAGUGA [Fam2.1 aminoacylation ribozyme variant]”, the self-aminoacylation in the series with biotinyl-Ile-oxazolone worked out at 2.75; with biotinyl-Met-oxazolone, 3.91; in the series on biotinyl-Phe-oxazolone, 10.5; in the series with biotinyl-Trp-oxazolone it was 4.62; in the series on biotinyl-Val-oxazolone, 2.75; in the series on biotinyl-Leu-oxazolone, 3.91.

As for “CCACAGUUCAAGCAAUCCGUC [Fam1B.1 aminoacylation ribozyme variant]”, the self-aminoacylation with biotinyl-Ile-oxazolone was found to be 1.19; in the series on biotinyl-Met-oxazolone it was 1.13; with biotinyl-Phe-oxazolone, 1.11; in the series on biotinyl-Trp-oxazolone it was 1.04; with biotinyl-Val-oxazolone, 1.2; in the series with biotinyl-Leu-oxazolone, 1.16.

Consider “UUUAGCCUGGUCAUCGAGUGA [Fam2.1 aminoacylation ribozyme variant]”, for which the self-aminoacylation in the series with biotinyl-Ile-oxazolone is 4.42; in the series on biotinyl-Met-oxazolone it was 5.59; in the series with biotinyl-Phe-oxazolone it was 21.9; in the series with biotinyl-Trp-oxazolone it was 7; in the series on biotinyl-Val-oxazolone, 4.28; with biotinyl-Leu-oxazolone, 5.82.

Turning to “UCACACUCCAAGCAAUCGGUC [Fam1B.1 aminoacylation ribozyme variant]”, the self-aminoacylation in the series on biotinyl-Ile-oxazolone is 0.885; with biotinyl-Met-oxazolone, 0.825; in the series with biotinyl-Phe-oxazolone, 2.4; in the series with biotinyl-Trp-oxazolone it was 1.44; in the series with biotinyl-Val-oxazolone, 1.13; in the series with biotinyl-Leu-oxazolone, 0.792.

As for “AUUACCAUGGUGAUCGAGUGA [Fam2.1 aminoacylation ribozyme variant]”, the self-aminoacylation with biotinyl-Ile-oxazolone turned out to be 2.33; with biotinyl-Met-oxazolone, 3.59; in the series with biotinyl-Phe-oxazolone, 14.7; with biotinyl-Trp-oxazolone, 4.4; in the series on biotinyl-Val-oxazolone it was 2.4; in the series on biotinyl-Leu-oxazolone, 4.04.

As to “UAGUUUGCUAAUAUUCGCAAG [Fam3.1 aminoacylation ribozyme variant]”, the self-aminoacylation in the series with biotinyl-Ile-oxazolone is 1.3; in the series with biotinyl-Met-oxazolone, 1.22; in the series with biotinyl-Phe-oxazolone, 1.71; in the series with biotinyl-Trp-oxazolone it was 1.21; in the series with biotinyl-Val-oxazolone it was 1.26; with biotinyl-Leu-oxazolone it was 1.04.

As to “CUACUUCAAAAAAUCGGUGUG [Fam1A.1 aminoacylation ribozyme variant]”, the self-aminoacylation in the series with biotinyl-Ile-oxazolone was 0.889; in the series on biotinyl-Met-oxazolone, 0.946; in the series with biotinyl-Phe-oxazolone it was 1.89; in the series on biotinyl-Trp-oxazolone, 1.53; in the series on biotinyl-Val-oxazolone it was 0.814; with biotinyl-Leu-oxazolone, 1.31.

“CCAGACUUCAAGCAAUCGGUG [Fam1B.1 aminoacylation ribozyme variant]”: the self-aminoacylation with biotinyl-Ile-oxazolone worked out at 4.56; with biotinyl-Met-oxazolone, 6.21; in the series on biotinyl-Phe-oxazolone, 29.2; in the series on biotinyl-Trp-oxazolone, 7.25; in the series on biotinyl-Val-oxazolone, 4.1; in the series on biotinyl-Leu-oxazolone, 8.51.

In the case of “CUAAUUCAAACAAUCAGUCUG [Fam1A.1 aminoacylation ribozyme variant]”, the self-aminoacylation in the series on biotinyl-Ile-oxazolone was 0.659; in the series with biotinyl-Met-oxazolone, 0.702; in the series with biotinyl-Phe-oxazolone it was 3.65; in the series with biotinyl-Trp-oxazolone it was 1.44; with biotinyl-Val-oxazolone, 0.772; in the series with biotinyl-Leu-oxazolone, 0.674.

As for “CCACACUUGACGCAAUCGGUC [Fam1B.1 aminoacylation ribozyme variant]”, the self-aminoacylation is 1.4 in the series with biotinyl-Ile-oxazolone; 1.44 in the series on biotinyl-Met-oxazolone; 1.18 in the series on biotinyl-Phe-oxazolone; 1.54 in the series with biotinyl-Trp-oxazolone; 1.43 with biotinyl-Val-oxazolone; 1.21 with biotinyl-Leu-oxazolone.

With “AAGUUUGCUAAAAGUCGCUAG [Fam3.1 aminoacylation ribozyme variant]”, the self-aminoacylation is 0.911 in the series on biotinyl-Ile-oxazolone; 0.781 with biotinyl-Met-oxazolone; 1.38 in the series on biotinyl-Phe-oxazolone; 0.783 in the series on biotinyl-Trp-oxazolone; 0.803 in the series with biotinyl-Val-oxazolone; 0.944 in the series on biotinyl-Leu-oxazolone.

As to “AUUCACCGAAGUCAUCGGGUG [Fam2.2 aminoacylation ribozyme variant]”, the self-aminoacylation was 9.89 in the series on biotinyl-Ile-oxazolone; 17.6 with biotinyl-Met-oxazolone; 152 in the series on biotinyl-Phe-oxazolone; 15.1 in the series on biotinyl-Trp-oxazolone; 9.73 with biotinyl-Val-oxazolone; 23.7 with biotinyl-Leu-oxazolone.

Consider “CAGUUUGCUGAUAGUCGCAAG [Fam3.1 aminoacylation ribozyme variant]”, for which the self-aminoacylation with biotinyl-Ile-oxazolone was 1.34; in the series with biotinyl-Met-oxazolone it was 1.11; with biotinyl-Phe-oxazolone it was 1.88; in the series with biotinyl-Trp-oxazolone, 1.99; with biotinyl-Val-oxazolone, 1.27; in the series with biotinyl-Leu-oxazolone, 1.17.

Regarding “AUUCAGCAAGGUCAUCGGGUG [Fam2.2 aminoacylation ribozyme variant]”, the self-aminoacylation was found to be 4.51 in the series with biotinyl-Ile-oxazolone; 6.23 in the series on biotinyl-Met-oxazolone; 47.9 with biotinyl-Phe-oxazolone; 7 in the series on biotinyl-Trp-oxazolone; 4.9 in the series on biotinyl-Val-oxazolone; 7.63 in the series with biotinyl-Leu-oxazolone.

Regarding “AAGUUGACUAAUAGUCGCAAG [Fam3.1 aminoacylation ribozyme variant]”, the self-aminoacylation turned out to be 1.18 with biotinyl-Ile-oxazolone; 0.839 with biotinyl-Met-oxazolone; 1.5 with biotinyl-Phe-oxazolone; 1.19 in the series with biotinyl-Trp-oxazolone; 0.949 in the series on biotinyl-Val-oxazolone; 0.935 in the series with biotinyl-Leu-oxazolone.

Regarding “AUUCACCUAUGACAUCGGGUG [Fam2.2 aminoacylation ribozyme variant]”, the self-aminoacylation stood at 2.25 in the series on biotinyl-Ile-oxazolone; 3.24 in the series with biotinyl-Met-oxazolone; 22.3 in the series with biotinyl-Phe-oxazolone; 3.44 in the series on biotinyl-Trp-oxazolone; 1.73 in the series on biotinyl-Val-oxazolone; 3.63 in the series on biotinyl-Leu-oxazolone.

As for “AUUUACCUAGGUCACCGGGUG [Fam2.2 aminoacylation ribozyme variant]”, the self-aminoacylation with biotinyl-Ile-oxazolone worked out at 3.61; in the series on biotinyl-Met-oxazolone it was 4.23; with biotinyl-Phe-oxazolone, 26.5; in the series with biotinyl-Trp-oxazolone it was 3.83; in the series on biotinyl-Val-oxazolone, 3.08; with biotinyl-Leu-oxazolone it was 6.09.

For the sequence “AAGUUUGCUAAUGGUCCCAAG [Fam3.1 aminoacylation ribozyme variant]”, the self-aminoacylation is 0.977 in the series on biotinyl-Ile-oxazolone; 0.976 with biotinyl-Met-oxazolone; 1.11 in the series with biotinyl-Phe-oxazolone; 1.21 with biotinyl-Trp-oxazolone; 1 in the series with biotinyl-Val-oxazolone; 0.908 in the series on biotinyl-Leu-oxazolone.

For “AAGUUGGCUAAUCGUCGCAAG [Fam3.1 aminoacylation ribozyme variant]”, the self-aminoacylation in the series on biotinyl-Ile-oxazolone was determined as 1.76; in the series on biotinyl-Met-oxazolone it was 1.68; in the series with biotinyl-Phe-oxazolone, 2.73; in the series on biotinyl-Trp-oxazolone it was 2.24; in the series with biotinyl-Val-oxazolone, 1.51; in the series with biotinyl-Leu-oxazolone, 1.75.

In the case of “CCACACUUCGAGCAAGCGGUC [Fam1B.1 aminoacylation ribozyme variant]”, the self-aminoacylation in the series with biotinyl-Ile-oxazolone was determined as 0.864; in the series on biotinyl-Met-oxazolone it was 0.927; with biotinyl-Phe-oxazolone it was 0.487; in the series with biotinyl-Trp-oxazolone it was 0.82; in the series on biotinyl-Val-oxazolone, 1.19; in the series with biotinyl-Leu-oxazolone, 0.874.

Take “CUACUUCAAAUAAUCGGUCAG [Fam1A.1 aminoacylation ribozyme variant]”: the self-aminoacylation was 0.755 with biotinyl-Ile-oxazolone; 0.675 with biotinyl-Met-oxazolone; 6.75 in the series on biotinyl-Phe-oxazolone; 3.24 in the series on biotinyl-Trp-oxazolone; 0.83 in the series on biotinyl-Val-oxazolone; 0.708 with biotinyl-Leu-oxazolone.

On to “CCACACUUCAAGCACUCGGUC [Fam1B.1 aminoacylation ribozyme variant]”, for which the self-aminoacylation in the series on biotinyl-Ile-oxazolone was found to be 0.855; with biotinyl-Met-oxazolone, 0.777; in the series with biotinyl-Phe-oxazolone it was 0.887; in the series with biotinyl-Trp-oxazolone it was 0.733; in the series with biotinyl-Val-oxazolone it was 0.996; in the series with biotinyl-Leu-oxazolone it was 0.757.
